# Laboratory results as given in the DeepSol protein solubility set.
# Test: soluble on expression in E. coli; label from the status in PepcDB or PDB records
row,Sequence,soluble on expression in E. coli
1,MNTINRNYYPVSGIPAQDAPAQTDQLPPQGQGIKPGHNSNLIDFGLTQQANGPHSSLNTLGSRVQPTDTNTSSNMPGGNGEQVLNKLVQAIRNILNNLLSLLEGNLHNGSGPAQPQRDQTPTLAQSPSSASPSSSPPSTPQGNAEKPFVVQNDHPSEKPVSLQKNTEPTSAAPSQTAPRTTERSSATPDKTPARPDAVNPAVVHDLALPKTSTDTTAKPDNTVNAAKTATPAAHGQGADMSGIMGFAKEANTTGGNGGEVVTVNTVADLKKYMEDDKARTVKLGANLSADSKVTINFGANKTLLGTDKGNSLHNIYLASGKTASNDIFQNLNFDHDSRYRENGDMQMFISSGQKYWIDHNTYSGTKDQNAKGLDKLLYVGGTADNVSLTNSKFQNNEYGVILGQPDDSAQAKAEYKGYPRMTIANNVFSNLDVRAPGLMRHGQFDVLNNSIDNFHLGFTATGDATILSQANYFAKGVDVSDKASNSGVLDDYGDAHFKDIGSNVSFTQKSAVTAWTPSYQRDIKTAEAARAYDQANAGAKTVS,not soluble
2,EDATPETVEYRQLSAADLLADTHLLREVFGLLVLAHYRTEPSDLARLLDAPNLTVRALTHEGHVVAVALLAQEGGLSASTRATMYEGGRVRGNMLPDVLSTQLRDEAAGVPVGQRVLRIATHAAVRSRGLGSKLLSEIRAEFADHVDWVGVSYGATPELVRFWADNGYNTVHLATSRNATSGEYSVVMLDP,not soluble
3,MGSDKIHHHHHHMWDYDRLFEIIEELVMHHSPSGAEAEINQLLMQRFAALGVEVWCDRADNIIAKIPGKNPDRAMSNDKPLLYERLRQRAYAITAHKDEIGAIVKSLGDEGRVEVRKLGGSFPWVYGEGVVDLLGDRETISGILSFGSRHVSHESPQKVQQEDTTVKWENAWIETKRTTDELEAAGVRPGTRMVIGKHRKHPIRLKDHIASYTLDNKASVAILLALAENLKQPVVDVYLVASAKEEVGAIGALFFTQNQPLDALIALEVCPLSEEYPIKDGESPILLSQDAYGIYDEGLNGQVRQSAKQLDIPVQLTILSQFGSDASIAMKFGHVARAACLAFPTQNTHGYEIAHLGAIANCIDLLKAFCETEF,not soluble
4,MSLSELLDLSFLSEEEKDLILSVLQRDEEVRKADEKRIRRLKNELLEIKRKGAKRGSQHYSDRTCARCQESLGRLSPKTNTCRGCNHLVCRDCRIQESNGTWRCKVCAKEIEMKKATGDWFYDQKVNRFAYRTGSEIIRMSLRHKPAVSKREGHHHHHH,not soluble
5,MGSDKIHHHHHHMADAPIDIFQSILSRKSIRAFTDQPVTQETIREILKLAARAPSGTNLQPWQVIVLTGKILQKVGQELSQLVLSGIKGEREYHYYPRQWREPYLSRRRKVGLDLYKSLGIQKGDQEKMLHQKAKNFLFYGAPVGLLFTIDHDMEMGSWLDLGMFMQTIMLAARGFGLDTCAQAAFADYHKQIRSLLSVPSDRHIICGMALGYRDMNAPENNFETEREPIDNFVHFIKSYP,not soluble
6,MVEQTTSEPAAGSMPKISFGVKKREENKVQAPAKAVVIEVDLDSDEEREKNEMERAAKRRKVMHFEDGTVQGDIDKPKEAAVIPMVVEHDWRTQKLIEKEKAGTLTEEERAKLALVLPNGIDGENEEESGKGEKIVVEDGRGDTEDADYSAIPIESFGLAILRGCNWKDGDGIGKNPQKVALKLPNRRPPGLGLGATPKNPVGKNKNTGESSKAEEEKLEEIKVGSFIKVVDGRNKGVYGKVEGRDDDSNSLFIRTAIGGKTMKVSQIVAVAVSAKEYERDSKCLNKSEYDKEKDRLETERKKLESQPPSTSTSQSSKDYKSKSSSSKHDKNSSEYERNDKMWARTDLLVRFIDEDFKRGSLYEQKVRIVDVAGDNDVTIEDDRGNTHYNIRQSWLETVIPREIGEKLMIVAGKRSGQLAVMLDKDKRKEKVTARLVATNDVVTAYFEDVCSVKIRHEEDYE,not soluble
7,MGSDKIHHHHHHMSKPAITLWSDAHFFSPYVLSAWVALQEKGLSFHIKTIDLDSGEHLQPTWQGYGQTRRVPLLQIDDFELSESSAIAEYLEDRFAPPTWERIYPLDLENRARARQIQAWLRSDLMPIREERPTDVVFAGAKKAPLTAEGKASAEKLFAMAEHLLVLGQPNLFGEWCIADTDLALMINRLVLHGDEVPERLVDYATFQWQRASVQRFIALSAKQSG,not soluble
8,MGSDKIHHHHHHMNTTHAVPSITPNNDPWEAYDDIKMFGKPTLTNIEVTTTTLCNMRCEHCAVGYTLQTKDPDALPLDLLLRRLDEIPHLRAFSITGGEPMLSKKSVESYVVPLLRYAHERGARTQINSNLTLNIERYEKILPYLDVLHISHNYGSINDFTDIGFAVMERKPSIEQREALFHRMVENAKMLTQEGVFVSAETMINKRTLPHLEKIHEQIVSMGCQRHEVHPMYPSDFASALDVASLDEIRKGIHRLLDARDKKTWMLFGTLPFYPCSDQEEDLMLLKRLYGEPNVTVRNDPDGRSRLNVNLFDGNIIVTDFGDTPPLGNIMTTSFIEAYEKWQHSEISKELSCHCPMAECLGPNILVKNTYYRGVDFHKRKAVLHK,not soluble
9,PTPPNWNMTSSGLEVKSPGDGILTPGENMELVAAVCSACHSLHMVTQQGLSRQRWDESLDWMIEEQGMEDLSGDDREAILEYLSTYYGG,not soluble
10,MNAACPDCGLKFQCLCSAVPSFHAPFQLSLLTHDNEWQRETNTGRWLVKSMAECQAYTWSRVAANTELQARLTQPNARSFLVYPSEESVELTDALRSLREDEIAHFIVLDATWQEARKMERKSPWLADVPRVHLTTDHVSAYRLRRNQQPGNLCTLEVGLMLLRHFNAEASAEALEQFYHYSMNAFKADKSGHRWIERLEHHHHHH,not soluble
11,MVSIRRSFEAYVDDMNIITVLIPAEQKEIMTPPFRLETEITDFPLAVREEYSLEAKYKYVCVSDHPVTFGKIHCVRASSGHKTDLQIGAVIRTAAFDDEFYYDGELGAVYTADHTVFKVWAPAATSAAVKLSHPNKSGRTFQMTRLEKGVYAVTVTGDLHGYEYLFCICNNSEWMETVDQYAKAVTVNGEKGVVLRPDQMKWTAPLKPFSHPVDAVIYETHLRDFSIHENSGMINKGKYLALTETDTQTANGSSSGLAYVKELGVTHVELLPVNDFAGVDEEKPLDAYNWGYNPLHFFAPEGSYASNPHDPQTRKTELKQMINTLHQHGLRVILDVVFNHVYKRENSPFEKTVPGYFFRHDECGKPSNGTGVGNDIASERRMARKFIADCVVYWLEEYNVDGFRFDLLGILDIDTVLYMKEKATKAKPGILLFGEGWDLATPLPHEQKAALANAPRMPGIGFFNDMFRDAVKGNTFHLKATGFALGNGESAQAVMHGIAGSSGWKALAPIVPEPSQSINYVESHDNHTFWDKMSFALPQENDSRKRSRQRLAVAIILLAQGVPFIHSGQEFFRTKQGVENSYQSSDSINQLDWDRRETFKEDVHYIRRLISLRKAHPAFRLRSAADIQRHLECLTLKEHLIAYRLYDLDEVDEWKDIIVIHHASPDSVEWRLPNDIPYRLLCDPSGFQEDPTEIKKTVAVNGIGTVILYLASDLKSFA,soluble
12,SREEMSLGCQEAFEIFKRDHADSVTIDDNKQILKQRFSEAKALGESINEARSKIGHLKEEITQRHIQQVALGISENMAVPLMPDQQEEKLRSQLEEEKRRYKTMFTRLKALKVEIEHLQLLMDKAKVKLQKEFEVWWAEEATNLQVNSPAVNSLDHTKPFLQTSDSQHEWSQLLSNKSSGGWEVQDQGTGRFDVCDVNARKILPSPCPSPHSQKQSSTSTPLEDSIPKRPVSSIPLTGDSQTDSDIIAFIKARQSILQKQCLGSN,soluble
13,SWVWNQMFVLEEFSGPEPILVGRLHTDLDPGSKKIKYILSGDGAGTIFQINDITGDIHAIKRLDREEKAEYTLTAQAVDFETNKPLEPPSEFIIKVQDINDNAPEFLNGPYHATVPEMSILGTSVTNVTATDADDPVYGNSAKLVYSILEGQPYFSIEPETAIIKTALPNMDREAKEEYLVVIQAKDMGGHSGGLSGTTTLTVTLTDVNDNPPKFAQSLYHFSVPEDVVLGTAIGRVKANDQDIGENAQSSYDIIDGDGTALFEITSDAQAQDGVIRLRKPLDFETKKSYTLKVEAANIHIDPRFSSRGPFKDTATVKIVVE,soluble
14,MSLKIVIIGASFAGISAAIASRKKYPQAEISLIDKQATVGYLSGGLSAYFNHTINELHEARYITEEELRRQKIQLLLNREVVAMDVENQLIAWTRKEEQQWYSYDKLILATGASQFSTQIRGSQTEKLLKYKFLSGALAAVPLLENSQTVAVIGAGPIGMEAIDFLVKMKKTVHVFESLENLLPKYFDKEMVAEVQKSLEKQAVIFHFEETVLGIEETANGIVLETSEQEISCDSGIFALNLHPQLAYLDKKIQRNLDQTIAVDAYLQTSVPNVFAIGDCISVMNEPVAETFYAPLVNNAVRTGLVVANNLEEKTHRFIGSLRTMGTKVGDYYLASTGLTETEGLFFPQTLASIIVRQPAPPLQHGTEILGKLIYDKVTQRVLGAQLCSKNNCLEKINTLALSIQTGQTLTDLLQKDYFYQPSLTNIYDITNLMGASAYWRENDEGHHHHHH,soluble
15,MAGAMRKMAVYLGLVEDDGYDGRGFDPDDDFEPELDPEPERDHRRHEPAHQSHGAHQSQRDEEVRVVQPPAQREPMPRAASLAAESSRPARIAPVASITQERASLEKSAPVIMPKVVSEREPYRITTLHPRTYNEARTIGEHFREGTPVIMNLTEMDDTDAKRLVDFAAGLVFGLHGSIERVTQKVFLLSPANVDVTAEDKARIAEGGFFNQSLEHHHHHH,not soluble
16,MGSDKIHHHHHHMTQFWRDPTLPFVESRRATDSRACYRPHSHPTLSIGVVDRGQSQFQCQRRREWLTPGCLVSVPAGVVHDCNPLPDQPWSYQMLYLEPAWVSEVLDEASAETDAAPTLPSTVFIARDVAPYQAFCRLNALLFSSAPRADKEAGLIEFLGSRLWCHGDAMAVHWPNSSDLDDLQRHLLECLERPPSLEVLARDHGLSRYQVIRLFRRETGLTPHAWLLDRRIQQARRRLCQGVELAELAQELGFADQGHFQRAFKARVAATPGRYRST,not soluble
17,MGSDKIHHHHHHMKLETIDYRAQDSAQRFVESLRETGFGVLSNHPIDKALVDTIYEEWQAFFNSDEKHDYLFKPETHDGFFPADVSETAKGHTVKDIKEYYHVYPWGRIPDSLRENILRYYQEANALAEELLGWVEAHTPAEVAVNYSIALPKMIENSHKTLLRILHYPPMSGDEELGAIRAAAHEDINLLTVLPAANEPGLQVKAKSGEWLDVPSDFGNLIINIGDMLQEASGGYFPSTTHRVVNPEGADKTRSRISLPLFLHPKPEVVLSERYTADSYLMERLRELGVI,not soluble
18,MGHHHHHHSHMACAEFSFHVPSLEELAGVMQKGLKDNFADVQVSVVDCPDLTKEPFTFPVKGICGKTRIAEVGGVPYLLPLVNQKKVYDLNKIAKEIKLPGAFILGAGAGPFQTLGFNSEFMPVIQTESEHKPPVNGSYFAHVNPADGGCLLEKYSEKCHDFQCALLANLFASEGQPGKVIEVKAKRRTGPLNFVTCMRETLEKHYGNKPIGMGGTFIIQKGKVKSHIMPAEFSSCPLNSDEEVNKWLHFYEMKAPLVCLPVFVSRDPGFDLRLEHTHFFSRHGEGGHYHYDTTPDIVEYLGYFLPAEFLYRIDQPKETHSIGRD,soluble
19,VKILVDENMPYARDLFSRLGEVTAVPGRPIPVAQLADADALMVRSVTKVNESLLAGKPIKFVGTATAGTDHVDEAWLKQAGIGFSAAPGCNAIAVVEYVFSSLLMLAERDGFSLYDRTVGIVGVGNVGRRLQARLEALGIKTLLCDPPRADRGDEGDFRSLDELVQRADILTFHTPLFKDGPYKTLHLADEKLIRSLKPGAILINACRGAVVDNTALLTCLNEGQKLSVVLDVWEGEPELNVELLKKVDIGTSHIAGYTLEGKARGTTQVFEAYSKFIGHEQHVALDTLLPAPEFGRITLHGPLDQPTLKRLVHLVYDVRRDDAPLRKVAGIPGEFDKLRKNYLERREWSSLYVICDDASAASLLCKLGFNAVHHPAR,soluble
